Article PMC12796744

Experiments:
GST-HMGN1ΔC = test: in vitro multiplex nucleosome-bead conjugate binding assay; conditions: for response (RFU (background subtracted)): 0.625 nM GST-HMGN1ΔC, three technical replicates, parent: est. 110000, read off a plot; for other: HMGN1ΔC / HMGN1 relative to canonical nuc.: parent: est. 1.0, read off a plot
GST-HMGN2ΔC = test: as above; conditions: for response (RFU (background subtracted)): 0.625 nM GST-HMGN2ΔC, three technical replicates, parent: est. 100000, read off a plot; for other: HMGN2ΔC / HMGN2 relative to canonical nuc.: parent: est. 1.0, read off a plot
GST-HMGN1 [1] = biological target: GST-HMGN1 (UniProt P05114); test: as above; conditions: 0.625 nM GST-HMGN1, three technical replicates, parent: est. 37000, read off a plot
GST-HMGN2 [2] = biological target: GST-HMGN2 (UniProt P05204); test: as above; conditions: 0.625 nM GST-HMGN2, three technical replicates, parent: est. 54000, read off a plot
GST-HMGN1 [3] = biological target: GST-HMGN1 (UniProt P05114); test: in vitro multiplex nucleosome-bead conjugate binding assay (titration); conditions: GST-HMGN1 at 5 on the x axis (axis uM; legend nM); raw RFU before normalization; parent: est. 160000; read off a plot
GST-HMGN2 [4] = biological target: GST-HMGN2 (UniProt P05204); test: as above; conditions: GST-HMGN2 at 5 on the x axis (axis uM; legend nM); raw RFU before normalization; parent: est. 370000; read off a plot

Chain of UniProt P05114 (P05114 whole entry, looked up): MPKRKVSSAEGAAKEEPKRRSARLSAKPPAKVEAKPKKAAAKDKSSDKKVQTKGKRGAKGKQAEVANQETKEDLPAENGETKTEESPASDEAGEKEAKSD

Substance | response (RFU (background subtracted)) (GST-HMGN1ΔC) | other: HMGN1ΔC / HMGN1 relative to canonical nuc. (GST-HMGN1ΔC) | response (RFU (background subtracted)) (GST-HMGN2ΔC) | other: HMGN2ΔC / HMGN2 relative to canonical nuc. (GST-HMGN2ΔC) | response (RFU (background subtracted)) (GST-HMGN1 [1]) | response (RFU (background subtracted)) (GST-HMGN2 [2]) | response (GST-HMGN1 [3]) [RFU] | response (GST-HMGN2 [4]) [RFU]
canonical unmodified nucleosome (from UniProt P04908;O60814;P68431;P62805) H2A:E61A | 66000 | 1.7 | 52000 | 2.1 | 11000 | 16000 | 58000 | 92000
canonical unmodified nucleosome (from UniProt P04908;O60814;P68431;P62805) H2A:E92K | 66000 | 1.1 | 38000 | 1.2 | 22000 | 25000 | 74000 | 110000
